We go through 20 molecules from patent US20240156870A1 (NATIONAL RESEARCH COUNCIL OF CANADA, published 2024).

Substitutions are numbered along the chain they refer to.

The term Kd denotes the equilibrium constant for the complex coming apart. Usually kon stands for the second-order rate constant of association. What is called EC50 is the concentration needed to bring the measured effect to its halfway point. Low readings indicate higher potency in that assay, high ones lower potency in that assay. What is called koff is the first-order rate constant of dissociation. As a reminder, the EC50 (read off the curve) is the midpoint of the concentration-response curve.

For test [1], the target named is recombinant human EGFRvIII ectodomain (human) (UniProt P00533). Description: SPR multi-cycle, VHH over amine-coupled EGFRvIII ectodomain.
Test [2] concerns the target recombinant 6xHis-tagged human EGFR ectodomain (human) (UniProt P00533). Nature of the test: SPR multi-cycle, VHH over amine-coupled EGFR ectodomain.
For test [3], the target named is T1, human EGFR-Fc fusion protein (human, UniProt P00533 25-645).
T1 construct: Bought; not shown: Fc part of the bought fusion
Nature of the test: SPR single-cycle, VHH over amine-coupled human EGFR-Fc.

The target in test [4] is T2, human EGFR, native, on the cell surface (human, UniProt P00533 25-1210).
T2 construct: MCF7 is EGFR-low and serves as low-expression control; also called native cell-surface EGFR
Nature of the test: Mirrorball microplate cytometry, adherent MDA-MB-468 cells.

Test [5] addresses T1, human EGFR-Fc fusion protein. Description: SPR, VHH over human EGFR-Fc.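 Also: Single-cycle kinetics on Biacore T200 at 25 °C in HBS-EP, monomeric VHHs at 0.6–50 nM flowed over immobilized EGFR, 180 s association, 600 s dissociation, ethanolamine-blocked reference cell.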 For orientation: Surface plasmon resonance follows binding to a sensor surface in real time, without labels.
Description: (§1) In the second SPR experiment, single-cycle kinetic analyses were performed on a Biacore™ T200 instrument (GE Healthcare) at 25° C. in HBS-EP buffer. […] An ethanolamine-blocked flow cell served as the reference. Monomeric VHHs at concentrations ranging from 0.6 to 50 nM were injected over the EGFR surfaces in HBS-EP buffer at a flow rate of 40 μL/min. The contact time was 180 s and the dissociation time was 600 s. The EGFR surfaces were regenerated using a 10 s pulse of 10 mM glycine, pH 1.5.
The target of test [6] is T3, recombinant 6xHis-tagged human EGFR ectodomain (human, UniProt P00533 25-645).
T3 construct: extracellular domain; Bought; also called recombinant human EGFR; EGFR extracellular domain; not shown: 6xHis tag
Description: SPR (value of Table 2 repeated in Table 6).

The target of test [7] is T3, recombinant 6xHis-tagged human EGFR …. Nature of the test: SPR multi-cycle, VHH over amine-coupled EGFR ectodomain.
Description: In the first SPR experiment, multi-cycle kinetic analyses were performed on a Biacore™ 3000 instrument (GE Healthcare) at 25° C. in HBS-EP buffer [10 mM HEPES, pH 7.4, containing 150 mM NaCl, 3 mM EDTA and 0.005% (w/v) surfactant P20]. […] An ethanolamine-blocked flow cell served as the reference. Monomeric VHHs at concentrations ranging from 0.1 to 100 nM were injected over the EGFR and EGFRvIII surfaces in HBS-EP buffer at a flow rate of 20 μL/min. […] Contact times were 180-300 s and dissociation times were 300-600 s.
Test [8] addresses T2, human EGFR, native, on the cell surface. Description: Mirrorball microplate cytometry, serial dilution, AF488 anti-human Fc; the cell line is not named in the legend of FIG. 5D (paragraph 463 treats it with the MDA-MB-468 assay of FIG. 5B).
Test [9] concerns the target T4, rhesus EGFR-Fc fusion protein (rhesus, UniProt P55245 25-645).
T4 construct: Bought; not shown: Fc part of the bought fusion
Nature of the test: SPR single-cycle, VHH over amine-coupled rhesus EGFR-Fc.

Test [10] deals with T4, rhesus EGFR-Fc fusion protein. The description is as above. The source holds these as a separate data set.
Description: as §1
The target of test [11] is T5, mouse EGFR-Fc fusion protein (mouse, UniProt Q01279 25-647).
T5 construct: Bought; not shown: Fc part of the bought fusion
Nature of the test: ELISA, VHH titrated from about 0.5 to 1000 ng/mL, OD 450 nm. (In general: In an ELISA, binding on a coated surface is turned into a signal by an enzyme label.)

In test [12] the target is T1, human EGFR-Fc fusion protein. Described as above.
Test [13] deals with T4, rhesus EGFR-Fc fusion protein. The test is described as above.
The target of test [14] is T5, mouse EGFR-Fc fusion protein. Description: SPR single-cycle, VHH over amine-coupled mouse EGFR-Fc.
Description: as §1

With EG2 VHH, the Kd in test [1] is 14.6 nM; in [2] it was 19.1 nM; in test [3] it was 11.1 nM. The kon was found to be 1.2e+06 M⁻¹ s⁻¹ in [1] and 850000 M⁻¹ s⁻¹ in test [3].
Regarding EG2-Fc (Fc fusion), the concentration for a half-maximal effect (EC50) in test [4] is 279 nM.

B1: NRC-sdAb033-H2 (VHH)
VHH: QVQLVESGGGVVQPGRSLRLSCAASESIDSIYVMQWYRQAPGKGLEVVATLTPGGGSYYPDSVKGRFTISRDNSKNTLYLQMNSLRAEDTAVYYCNAFHRLRGTHYWGQGTLVTVSS
notes: Humanized variant H2 of NRC-sdAb033
For B1, in test [5], binding was characterised by a dissociation constant (Kd) of 1.4 nM, the koff turned out to be 0.00026 s⁻¹ and the kon was found to be 200000 M⁻¹ s⁻¹.

B2: NRC-sdAb033-H1 (VHH)
VHH: B1 VHH with G42E, E46D, D61E
notes: Humanized variant H1 of NRC-sdAb033
For B2, in test [5], the affinity, expressed as Kd, was 1.7 nM; the koff came out at 0.00022 s⁻¹; the kon was 130000 M⁻¹ s⁻¹.

B3: NRC-sdAb027 (VHH)
VHH: QVKLEESGGGLVQPGGSLKLSCAVSGFAFERNGVSWYRQAPGKQREFVAVISSGTTTYKDSVKGRFTISRDNTRNTAYLQMNNLKPEDTAVYYCNLIPPTPYWGQGTQVTVSS
notes: Monomeric llama VHH; also called EGFR7; not shown: C-terminal c-Myc and 6xHis tags
With B3, the Kd in test [1] came out at 2.3 nM; in test [6], 1.6 nM; in test [7] it was 1.6 nM. Besides, the values for the koff in test [1] and in test [7] were 0.00086 s⁻¹ and 0.00079 s⁻¹, respectively. Further, the kon in [1] is 380000 M⁻¹ s⁻¹; in test [7], 510000 M⁻¹ s⁻¹.

B4: NRC-sdAb032/NRC-sdAb022-Fc (Fc fusion)
chain 1: QVKLEESGGGLVQPGGSLRLSCSASGSISSISVMGWYRQAPGKQRELVARITSGGISNYVDSVKGRFTISGDSAKNIVYLQMNSLKPEDTAVYYCYMYVHVGYWVDYWGQGTQVTVSS
chain 2: B3 VHH with K3Q, E5V, I97V
notes: Member of the group m26; also called NRC-sdAb032/022-Fc; biparatopic heterodimeric VHH/VHH-Fc
As for B4, the EC50 in [8] is 1.6 nM.

B5: NRC-sdAb022-Fc (Fc fusion)
chain: B3 VHH with K3Q, E5V, I97V
notes: Bivalent VHH-human IgG1 Fc fusion from HEK293-6E cells; not shown: human IgG1 Fc
B5 gave an EC50 in test [4] of 67 nM.

B6: NRC-sdAb023 (VHH)
VHH: QVQLVESGGGLVQPGGSLRLSCTASGIIFSRNGVSWYRQAPGKEREFVAVITLSGTTTYKDSVKGRFTISRDNTRNTGYLQMNNLKPEDTAVYYCNLVPPTSYWGQGTQVTVSS
notes: Monomeric llama VHH; also called EGFR3; not shown: C-terminal c-Myc and 6xHis tags
Turning to B6, the Kd in [1] is 19.4 nM. Moreover, in [7], the dissociation constant Kd stood at 12.6 nM, the koff turned out to be 0.0057 s⁻¹ and the kon came out at 460000 M⁻¹ s⁻¹.

B7: NRC-sdAb026 (VHH)
VHH: QVQLVESGGALVQPGGSLRLSCSASGVIFGINTLAWHRQAPGKEREWVALISNAGSTKYAGSVKGRFTISRDNDKNTVYLQMDSLKPEDTAVYYCNYVPPSPAWGQGTQVTVSS
notes: Monomeric llama VHH; also called EGFR6; not shown: C-terminal c-Myc and 6xHis tags
As to B7, in [1], the Kd worked out at 25 nM, the koff turned out to be 0.0068 s⁻¹ and the kon was found to be 270000 M⁻¹ s⁻¹. In addition, in test [7], the Kd came to 15.4 nM, the koff was 0.0056 s⁻¹ and the kon was found to be 360000 M⁻¹ s⁻¹.

B8: NRC-sdAb024 (VHH)
VHH: QVQLVESGGGLVQPGGSLRLSCAASGSSLYINAMTWYRQAPGEQREFVAIISRGGDTKYSDSVKGRFSISIDNAKNTVYLQMNSLKAEDTAVYYCNAVPPFPNWGQGTQVTVSS
notes: Monomeric llama VHH; also called EGFR4; not shown: C-terminal c-Myc and 6xHis tags
For B8, in test [1], the Kd came out at 4.9 nM, the koff was found to be 0.0009 s⁻¹ and the kon amounted to 180000 M⁻¹ s⁻¹. In [7], the Kd came out at 2.9 nM, the koff worked out at 0.00073 s⁻¹ and the kon amounted to 250000 M⁻¹ s⁻¹.

B9: NRC-sdAb025 (VHH)
VHH: B8 VHH with Y30T, E43D, Q44E, I51V, S52Y, D56G, S60A
notes: Monomeric llama VHH; also called EGFR5; not shown: C-terminal c-Myc and 6xHis tags
With B9, in test [1], the Kd worked out at 2.8 nM, the koff was determined as 0.00071 s⁻¹ and the kon was 260000 M⁻¹ s⁻¹. Besides, in [7], the Kd is 1.7 nM, the koff turned out to be 0.00059 s⁻¹ and the association rate constant (kon) stood at 360000 M⁻¹ s⁻¹.

B10: NRC-sdAb028-H1 (VHH)
VHH: QVQLVESGGGVVQPGRSLRLSCTVSGSFFSRDAMGWHRQAPGKGLEMVAGISSGGLSNHAESVKGRFTISRDNSKNTLYLQMNSLRAEDTAVYYCSIYEDGVWTSWGQGTLVTVSS
notes: Humanized variant H1 of NRC-sdAb028
Regarding B10, in [5], the Kd worked out at 6.2 nM, the koff was determined as 0.00058 s⁻¹ and the kon was found to be 93000 M⁻¹ s⁻¹.

B11: NRC-sdAb028-Fc (Fc fusion)
chain: B10 VHH with Q1E, V11L, R16G, G44Q, L45R, L78V, S84N, R86K, A87P, L111Q
notes: as for B5
On to B11, for which the EC50 in test [4] amounted to 86 nM.

B12: NRC-sdAb032/NRC-sdAb028-Fc (Fc fusion)
chain 1: B4 chain 1
chain 2: B10 VHH with Q1E, V11L, R16G, G44Q, L45R, L78V, S84N, R86K, A87P, L111Q
notes: Member of the group m26; also called NRC-sdAb032/028-Fc; biparatopic heterodimeric VHH/VHH-Fc
Molecule B12 had an EC50 in [8] of 2.1 nM.

B13: NRC-sdAb032-Fc (Fc fusion)
chain: B4 chain 1
notes: Bivalent VHH-human IgG1 Fc fusion from HEK293-6E cells; also called homodimeric NRC-sdAb032-Fc; not shown: human IgG1 Fc
With B13, the EC50 came out at 0.5 nM in [4] and 0.9 nM in [8].

B14: NRC-sdAb021 (VHH)
VHH: QVQLVESGGGLVQPGGSLRLSCSVSLSDFGSKHLAWHRQAPGKEREWVALIFSSGATNYANSVKGRFTISRDNSKNTVYLQMNSLKPEDTAVYYCNLVPPSPAWGQGTQVTVSS
notes: Monomeric llama VHH purified from E. coli periplasm; also called EGFR1; not shown: C-terminal c-Myc and 6xHis tags
Take B14: in [1], the Kd came out at 40.4 nM, the koff is 0.0098 s⁻¹ and the kon worked out at 240000 M⁻¹ s⁻¹. Further, the Kd in [6] was found to be 38.5 nM. In test [7], the Kd was 38.5 nM, the koff was 0.012 s⁻¹ and the kon was 310000 M⁻¹ s⁻¹.

B15: NRC-sdAb032-H1 (VHH)
VHH: QVQLVESGGGLVQPGRSLRLSCSASGSISSISVMGWYRQAPGKGLELVARITSGGISNYVDSVKGRFTISRDSNSKNTLYLQMNSLRAEDTAVYYCYMYVHVGYWVDYWGQGTLVTVSS
notes: Humanized variant H1 of NRC-sdAb032
In test [5], B15 had a dissociation constant (Kd) of 16.6 nM, a dissociation rate constant (koff) of 0.01 s⁻¹ and an association rate constant (kon) of 620000 M⁻¹ s⁻¹.

B16: NRC-sdAb033 (VHH)
VHH: QVQLVESGGGLVQPGGSLRLSCAASESIDSIYVMQWYRQAPEKPRDVVATLTPGGGSYYPEAVLGRFTISRDDAKNTVYLQMNSLKPEDTAVYYCNAFHRLRGTHYWGQGTQVTVSS
notes: Monomeric llama VHH; in ELISA a version with biotin acceptor peptide and 6xHis was used; also called EVE48; not shown: C-terminal c-Myc and 6xHis tags
Turning to B16, the Kd was 1 nM in [9]; 1.8 nM in test [5]; 1.8 nM in test [3]; 3.1 nM in [14]; 1.1 nM in test [7]. Besides, the koff in test [10] is 0.00011 s⁻¹; in test [5], 0.00016 s⁻¹; in [3], 0.00016 s⁻¹; in test [14], 0.00028 s⁻¹; in [7] it was 0.00017 s⁻¹. The kon in [10] amounted to 110000 M⁻¹ s⁻¹; in [5] it was 90000 M⁻¹ s⁻¹; in [3] it was 90000 M⁻¹ s⁻¹; in [14] it was 92000 M⁻¹ s⁻¹; in test [7], 150000 M⁻¹ s⁻¹. The “EC50 (read off the curve)” value in test [11], in [12] and in [13] was roughly 0.02 µg/mL each time.

B17: NRC-sdAb033-Fc (Fc fusion)
chain: B16 VHH
notes: as for B5
In the case of B17, in test [4], a half-maximal response (EC50) required 49 nM.

B18: NRC-sdAb032/NRC-sdAb033-Fc (Fc fusion)
chain 1: B4 chain 1
chain 2: B16 VHH
notes: Member of the group m26; also called NRC-sdAb032/033-Fc; biparatopic heterodimeric VHH/VHH-Fc
The molecule B18 came in with an EC50 in test [8] of 1.8 nM.
